For twelve molecules, EC50 and Max effect results are on record in patent US20250171562A1 (ALK ABELL, published 2025).

B1: B1A1(G4S)2 (bispecific antibody)
chain: QVQLQESGGGLVQTGGSLRLSCAVHGRTFSNTGMGWFRQAPGNERQFVAIISPSGTSTYYADSVKGRFTISRDPAKNTVYLQMNSLKMDDTAVYYCAASYGSNWSTLRHQRRNEYDAWGQGTQVAVSGGGGSGGGGSEVQLLESGGGLVQPGGSLRLSCAASGFTFGNYDMAWVRQAPGKRPEWVSSIDTGGDITHYADSVKGRFTISRDNAKNTLYLQMNSLRPEDTAVYWCATDEEYALGPNEFDYYGQGTLVTVSS
B2: A1B1(G4S)1 (bispecific antibody)
chain: EVQLLESGGGLVQPGGSLRLSCAASGFTFGNYDMAWVRQAPGKRPEWVSSIDTGGDITHYADSVKGRFTISRDNAKNTLYLQMNSLRPEDTAVYWCATDEEYALGPNEFDYYGQGTLVTVSSGGGGSQVQLQESGGGLVQTGGSLRLSCAVHGRTFSNTGMGWFRQAPGNERQFVAIISPSGTSTYYADSVKGRFTISRDPAKNTVYLQMNSLKMDDTAVYYCAASYGSNWSTLRHQRRNEYDAWGQGTQVAVS
B3: NIgG4B1A1(G4S)3 (Fc fusion)
chain 1: QVQLQESGGGLVQTGGSLRLSCAVHGRTFSNTGMGWFRQAPGNERQFVAIISPSGTSTYYADSVKGRFTISRDPAKNTVYLQMNSLKMDDTAVYYCAASYGSNWSTLRHQRRNEYDAWGQGTQVAVSGGGGSGGGGSGGGGSGPPCPPCPAPEFLGGPSVFLFPPKPKDTLMISRTPEVTCVVVDVSQEDPEVQFNWYVDGVEVHNAKTKPREEQFNSTYRVVSVLTVLHQDWLNGKEYKCKVSNKGLPSSIEKTISKAKGQPREPQVYTLPPCQEEMTKNQVSLWCLVKGFYPSDIAVEWESNGQPENNYKTTPPVLDSDGSFFLYSRLTVDKSRWQEGNVFSCSVMHEALHNHYTQKSLSLSLGK
chain 2: EVQLLESGGGLVQPGGSLRLSCAASGFTFGNYDMAWVRQAPGKRPEWVSSIDTGGDITHYADSVKGRFTISRDNAKNTLYLQMNSLRPEDTAVYWCATDEEYALGPNEFDYYGQGTLVTVSSGGGGSGGGGSGGGGSGPPCPPCPAPEFLGGPSVFLFPPKPKDTLMISRTPEVTCVVVDVSQEDPEVQFNWYVDGVEVHNAKTKPREEQFNSTYRVVSVLTVLHQDWLNGKEYKCKVSNKGLPSSIEKTISKAKGQPREPQVCTLPPSQEEMTKNQVSLSCAVKGFYPSDIAVEWESNGQPENNYKTTPPVLDSDGSFFLVSRLTVDKSRWQEGNVFSCSVMHEALHNHYTQKSLSLSLGK
B4: sdAb F6 (VHH)
VHH: DVQLQESGGGLVQAGGSLRLSCAASGLTFGSYDMGWYRQAPGKQRELVGRIRNDGITYYADSVKGRFTMSRDNAKNTVYLQMNSLKPEDTAVYYCAADGTGLGHYDYWGQGTQVTVS
B5: NIgG4B1A1(RS) (Fc fusion)
chain 1: QVQLQESGGGLVQTGGSLRLSCAVHGRTFSNTGMGWFRQAPGNERQFVAIISPSGTSTYYADSVKGRFTISRDPAKNTVYLQMNSLKMDDTAVYYCAASYGSNWSTLRHQRRNEYDAWGQGTQVAVSRSGPPCPPCPAPEFLGGPSVFLFPPKPKDTLMISRTPEVTCVVVDVSQEDPEVQFNWYVDGVEVHNAKTKPREEQFNSTYRVVSVLTVLHQDWLNGKEYKCKVSNKGLPSSIEKTISKAKGQPREPQVYTLPPCQEEMTKNQVSLWCLVKGFYPSDIAVEWESNGQPENNYKTTPPVLDSDGSFFLYSRLTVDKSRWQEGNVFSCSVMHEALHNHYTQKSLSLSLGK
chain 2: EVQLLESGGGLVQPGGSLRLSCAASGFTFGNYDMAWVRQAPGKRPEWVSSIDTGGDITHYADSVKGRFTISRDNAKNTLYLQMNSLRPEDTAVYWCATDEEYALGPNEFDYYGQGTLVTVSSRSGPPCPPCPAPEFLGGPSVFLFPPKPKDTLMISRTPEVTCVVVDVSQEDPEVQFNWYVDGVEVHNAKTKPREEQFNSTYRVVSVLTVLHQDWLNGKEYKCKVSNKGLPSSIEKTISKAKGQPREPQVCTLPPSQEEMTKNQVSLSCAVKGFYPSDIAVEWESNGQPENNYKTTPPVLDSDGSFFLVSRLTVDKSRWQEGNVFSCSVMHEALHNHYTQKSLSLSLGK
notes: same for the Fc fusions below
B6: sdAb A2 (VHH)
VHH: EVQLLESGGGLVQPGGSLRLSCAASGFRFGNYDMAWVRQAPGKRYEWVSSIDTGGDITHYADSVKGRFTISRDNAKNTLYLQMNSLRPEDTAEYWCATDEEYALGPNEFDYYGQGTLVTVS
notes: also called A1 triple mutant (T28R, P45Y, V93E)
B7: F5A1(G4S)4 (bispecific antibody)
chain: DVQLQESGGGLVQPGGSLRLSCAASGSIFSIDIMGWYRQAPGKQRELVATMPEGNYINYADSVKGRLTLSRDKGKNTVYLQLNSLKPEDTAVYYCYGFGVREGRGNVYWGQGTQVTVSGGGGSGGGGSGGGGSGGGGSEVQLLESGGGLVQPGGSLRLSCAASGFTFGNYDMAWVRQAPGKRPEWVSSIDTGGDITHYADSVKGRFTISRDNAKNTLYLQMNSLRPEDTAVYWCATDEEYALGPNEFDYYGQGTLVTVS
B8: B1A1(G4S)1 (bispecific antibody)
chain: QVQLQESGGGLVQTGGSLRLSCAVHGRTFSNTGMGWFRQAPGNERQFVAIISPSGTSTYYADSVKGRFTISRDPAKNTVYLQMNSLKMDDTAVYYCAASYGSNWSTLRHQRRNEYDAWGQGTQVAVSGGGGSEVQLLESGGGLVQPGGSLRLSCAASGFTFGNYDMAWVRQAPGKRPEWVSSIDTGGDITHYADSVKGRFTISRDNAKNTLYLQMNSLRPEDTAVYWCATDEEYALGPNEFDYYGQGTLVTVSS
B9: B1A1(G4S)3 (bispecific antibody)
chain: QVQLQESGGGLVQTGGSLRLSCAVHGRTFSNTGMGWFRQAPGNERQFVAIISPSGTSTYYADSVKGRFTISRDPAKNTVYLQMNSLKMDDTAVYYCAASYGSNWSTLRHQRRNEYDAWGQGTQVAVSGGGGSGGGGSGGGGSEVQLLESGGGLVQPGGSLRLSCAASGFTFGNYDMAWVRQAPGKRPEWVSSIDTGGDITHYADSVKGRFTISRDNAKNTLYLQMNSLRPEDTAVYWCATDEEYALGPNEFDYYGQGTLVTVSS
B10: NIgG4B1A1(G4S)1 (Fc fusion)
chain 1: QVQLQESGGGLVQTGGSLRLSCAVHGRTFSNTGMGWFRQAPGNERQFVAIISPSGTSTYYADSVKGRFTISRDPAKNTVYLQMNSLKMDDTAVYYCAASYGSNWSTLRHQRRNEYDAWGQGTQVAVSGGGGSGPPCPPCPAPEFLGGPSVFLFPPKPKDTLMISRTPEVTCVVVDVSQEDPEVQFNWYVDGVEVHNAKTKPREEQFNSTYRVVSVLTVLHQDWLNGKEYKCKVSNKGLPSSIEKTISKAKGQPREPQVYTLPPCQEEMTKNQVSLWCLVKGFYPSDIAVEWESNGQPENNYKTTPPVLDSDGSFFLYSRLTVDKSRWQEGNVFSCSVMHEALHNHYTQKSLSLSLGK
chain 2: EVQLLESGGGLVQPGGSLRLSCAASGFTFGNYDMAWVRQAPGKRPEWVSSIDTGGDITHYADSVKGRFTISRDNAKNTLYLQMNSLRPEDTAVYWCATDEEYALGPNEFDYYGQGTLVTVSSGGGGSGPPCPPCPAPEFLGGPSVFLFPPKPKDTLMISRTPEVTCVVVDVSQEDPEVQFNWYVDGVEVHNAKTKPREEQFNSTYRVVSVLTVLHQDWLNGKEYKCKVSNKGLPSSIEKTISKAKGQPREPQVCTLPPSQEEMTKNQVSLSCAVKGFYPSDIAVEWESNGQPENNYKTTPPVLDSDGSFFLVSRLTVDKSRWQEGNVFSCSVMHEALHNHYTQKSLSLSLGK
B11: A1B1(G4S)3 (bispecific antibody)
chain: EVQLLESGGGLVQPGGSLRLSCAASGFTFGNYDMAWVRQAPGKRPEWVSSIDTGGDITHYADSVKGRFTISRDNAKNTLYLQMNSLRPEDTAVYWCATDEEYALGPNEFDYYGQGTLVTVSSGGGGSGGGGSGGGGSQVQLQESGGGLVQTGGSLRLSCAVHGRTFSNTGMGWFRQAPGNERQFVAIISPSGTSTYYADSVKGRFTISRDPAKNTVYLQMNSLKMDDTAVYYCAASYGSNWSTLRHQRRNEYDAWGQGTQVAVS
B12: NIgG4B1A1(G4S)2 (Fc fusion)
chain 1: QVQLQESGGGLVQTGGSLRLSCAVHGRTFSNTGMGWFRQAPGNERQFVAIISPSGTSTYYADSVKGRFTISRDPAKNTVYLQMNSLKMDDTAVYYCAASYGSNWSTLRHQRRNEYDAWGQGTQVAVSGGGGSGGGGSGPPCPPCPAPEFLGGPSVFLFPPKPKDTLMISRTPEVTCVVVDVSQEDPEVQFNWYVDGVEVHNAKTKPREEQFNSTYRVVSVLTVLHQDWLNGKEYKCKVSNKGLPSSIEKTISKAKGQPREPQVYTLPPCQEEMTKNQVSLWCLVKGFYPSDIAVEWESNGQPENNYKTTPPVLDSDGSFFLYSRLTVDKSRWQEGNVFSCSVMHEALHNHYTQKSLSLSLGK
chain 2: EVQLLESGGGLVQPGGSLRLSCAASGFTFGNYDMAWVRQAPGKRPEWVSSIDTGGDITHYADSVKGRFTISRDNAKNTLYLQMNSLRPEDTAVYWCATDEEYALGPNEFDYYGQGTLVTVSSGGGGSGGGGSGPPCPPCPAPEFLGGPSVFLFPPKPKDTLMISRTPEVTCVVVDVSQEDPEVQFNWYVDGVEVHNAKTKPREEQFNSTYRVVSVLTVLHQDWLNGKEYKCKVSNKGLPSSIEKTISKAKGQPREPQVCTLPPSQEEMTKNQVSLSCAVKGFYPSDIAVEWESNGQPENNYKTTPPVLDSDGSFFLVSRLTVDKSRWQEGNVFSCSVMHEALHNHYTQKSLSLSLGK

For the assay, the target named is T1, recombinant human IgE (human, UniProt P01854-1 1-428).
T1 construct: made in-house (ALK); preloaded on immobilised FcεRIα in the displacement ELISA
T1 sequence (P01854 other isoform, or with tags, fused parts or gaps): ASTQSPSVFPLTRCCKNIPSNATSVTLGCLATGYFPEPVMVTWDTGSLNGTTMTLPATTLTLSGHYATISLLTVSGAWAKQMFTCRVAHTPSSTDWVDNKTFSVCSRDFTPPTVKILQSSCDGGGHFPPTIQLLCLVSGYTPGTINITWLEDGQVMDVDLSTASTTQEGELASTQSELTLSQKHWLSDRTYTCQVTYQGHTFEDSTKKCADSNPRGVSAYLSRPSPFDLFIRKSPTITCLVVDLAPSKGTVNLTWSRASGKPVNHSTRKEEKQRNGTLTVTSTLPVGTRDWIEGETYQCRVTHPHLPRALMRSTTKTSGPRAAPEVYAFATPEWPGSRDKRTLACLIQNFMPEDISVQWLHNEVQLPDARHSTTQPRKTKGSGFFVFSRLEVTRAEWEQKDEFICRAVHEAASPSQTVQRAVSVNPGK
Kind of assay: IgE-FcεRIα displacement ELISA. On the procedure:
The displacement effect was tested using IgE-FcεRIα displacement ELISA assay. Maxisorp® microtiter plates (Thermo Scientific Nunc, Roskilde, Denmark) were coated with 100 μl streptavidin, 5 μg/ml (Thermo Scientific, Waltham, MA) for 18 h at 4° C. followed by wash with 300 μl washing buffer (PBS containing 0.05% Tween 20) using an AquaMax® 2000 plate washer (Molecular Devices, San Jose, CA). Remaining binding sites were blocked with 250 μl blocking buffer (PBS containing 2% BSA) for 2 h and washed with 300 μl washing buffer. Subsequently, the bound streptavidin was loaded with 100 μl (0.1 μg/ml) recombinant human FcεRIα (site specific biotinylated via avi-tag, made in-house, ALK, Hørsholm, Denmark) for 1 h and plates washed twice with 300 μl washing buffer. The bound receptor was then loaded with 100 μl recombinant human IgE (made in-house, ALK, Hørsholm, Denmark), 13 ng/ml (pre-titrated to reach an OD₄₅₀ signal in the range of 1.5-2.5 in the absence of displacement components) for 1h followed by three washes of 300 μl washing buffer.
displacement step: 100 μl sdAbs diluted in concentration series (pM-μM range) or blocking buffer only as a non-displacement negative control, were added to the ELISA wells and incubated for 1 h. Any IgE, displaced from the receptor by a sdAb was washed away by three washes of 300 μl washing buffer.
The ability of the various sdAbs to displace IgE from the receptor (FcεRIα) was evaluated by use of the ELISA based IgE-FcεRIα displacement assay. The percent displacement effect was calculated as the relative reduction in signal compared to the control with no sdAb added. The EC₅₀ values and the maximal effects were determined (table 15).
On the technique in general: An ELISA detects its analyte on a solid surface through an enzyme-linked reagent.
B1: the EC50 – broadly, the concentration at which the effect is half-maximal – came out at 10 nM and the Max effect was > 95%. In the same order, the values of B2 are 1 nM and > 95%.

As to B3, the EC50 was determined as 0.9 nM and the Max effect was > 95%. In the case of B4, the Max effect was < 20%. For the molecule B5, the EC50 turned out to be 1.9 nM and the Max effect was > 95%. For the molecule B6, the EC50 was 250 nM and the Max effect is > 95%. As for B7, the EC50 came to 1100 nM and the Max effect came out at 75%. In the same order, the values of B8 are 5.3 nM and > 95%.

Take B9: the EC50 came out at 5.3 nM and the Max effect was > 95%.

Take B10: the EC50 was 1.1 nM and the Max effect was > 95%. For B11 the same measures were 0.6 nM and > 95%. In the case of B12, the EC50 was 1.4 nM and the Max effect is > 95%.
